The target in the assay is T1, conjugate of a peptide consisting of an amino acid sequence represented by SEQ ID NO:1 (SSVLYGGPPSAA) and KLH (also: conjugated to KLH with glutaraldehyde, site and number per carrier not given here).
T1 construct: Synthetic peptide (Fmoc solid phase) cross-linked to KLH by glutaraldehyde; also called antigenic substance; antigen
T1 peptide: SSVLYGGPPSAA
Briefly: ELISA of hybridoma culture supernatant on plate coated with the peptide-KLH conjugate, fluorescence read-out. Here is the method: A buffer solution containing the above-mentioned antigenic substance (5 mg) (Baicarbonate buffer: 100 mM NaHCO₃—NaOH, pH 9.2 to 9.5, the concentration of the peptide: 1 μg/mL) was added to a 96 well flat bottom plate in an amount of 50 μL per well, and allowed to stand for coating at room temperature for 2 hours. The plate was washed 3 times with wash buffer (PBST), and then blocking buffer (3% skim milk 1% BSA, PBS) was added in an amount of 200 to 250 μL/well to react at 4° C. for one full day, and then washed 3 times. Then the culture supernatant of hybridoma was added in an amount of 100 μL/well, which was allowed to react at 37° C. for 4 hours or at 4° C. for one full day. After the plate was washed 3 times, biotin-labeled anti-mouse IgG (SIGMA) diluted 10000 times with dilution buffer (10 mM Tris-HCl (pH 8.0), 0.9% (W/V) NaCl, 0.05% (W/V) Tween 20) was added in an amount of 50 μL/well, which was allowed to react at room temperature for 2 hours. […] Then washing was performed 6 times, and fluorescent substrate buffer (Attophos substrate buffer, Roche Diagnostics K.K.) was added in an amount of 50 μL/well, and the plate was shaded to allow fluorescence to develop. Fluorescence intensity was measured in CytoFluorII (PerSeptive Biosystems).
On the technique in general: An ELISA detects its analyte on a solid surface through an enzyme-linked reagent.

Ends that are not written are not given here.

B1: monoclonal antibody (SSVmAb) of Example 1, produced by hybridoma Mouse-Mouse hybridoma SSV-C 93-3 (NITE BP-972) (antibody, IgG1, V domains shown)
VH: EIQLQQSGAELVKPGASVKISCKASGYSFTGYNMNWVKQSHGKSLEWIGNINPYYGSTSYNQKFKGKATLTVDKSSSTAYMQLNSLTSEDSAVYYCARSPYYSNYWRYFDYWGQGTTLTVSS
VL: QIVLSQSPAILSASPGEKVTMTCRASSSVSYMHWYQQKPGSSPKPWIYATSNLASGVPARFSGSGSGTSYSLTISRVEAEDAATYYCQQWSSNPWTFGGGTKLEIK
notes: Mouse hybridoma antibody
For B1, the binding result is “binds”.

The values above are taken from patent US20150079090A1 (JOSAI UNIVERSITY, published 2015).
